Legend:
[1] = target: T1, MMP-2, active, Human, Recombinant, CHO Cells (human, UniProt P08253 110-660); experiment: enzyme inhibition
T1 chain: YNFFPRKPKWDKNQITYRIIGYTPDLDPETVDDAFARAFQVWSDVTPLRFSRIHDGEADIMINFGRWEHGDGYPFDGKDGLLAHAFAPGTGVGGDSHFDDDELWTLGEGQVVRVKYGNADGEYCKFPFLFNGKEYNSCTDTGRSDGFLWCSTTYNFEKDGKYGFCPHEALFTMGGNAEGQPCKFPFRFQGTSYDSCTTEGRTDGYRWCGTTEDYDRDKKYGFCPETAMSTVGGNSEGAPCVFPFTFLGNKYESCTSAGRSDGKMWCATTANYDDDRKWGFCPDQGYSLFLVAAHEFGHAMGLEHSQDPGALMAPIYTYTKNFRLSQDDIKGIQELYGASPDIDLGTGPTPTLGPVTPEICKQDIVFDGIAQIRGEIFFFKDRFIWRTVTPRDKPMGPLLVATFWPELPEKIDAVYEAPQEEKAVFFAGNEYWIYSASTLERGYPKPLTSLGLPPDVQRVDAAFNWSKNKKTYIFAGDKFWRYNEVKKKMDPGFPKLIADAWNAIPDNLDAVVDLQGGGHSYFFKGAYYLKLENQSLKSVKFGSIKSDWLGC

[2] = target: T2, Neutrophil elastase (human) (human, UniProt P08246 30-247); experiment: substrate peptide degradation inhibition
T2 chain: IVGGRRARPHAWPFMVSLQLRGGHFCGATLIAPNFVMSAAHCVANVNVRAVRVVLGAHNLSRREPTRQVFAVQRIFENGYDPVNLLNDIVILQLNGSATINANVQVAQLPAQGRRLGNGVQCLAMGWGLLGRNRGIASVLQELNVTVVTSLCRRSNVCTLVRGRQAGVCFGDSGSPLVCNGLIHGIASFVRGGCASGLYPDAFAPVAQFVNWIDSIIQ

[3] = target: Protein C from human plasma (human, UniProt P04070 43-461); experiment: substrate peptide degradation inhibition
[4] = target: urokinase from human urine (human, UniProt P00749 21-431); experiment: substrate peptide degradation inhibition
Tryptase from human lung = Tryptase from human lung (human, UniProt Q15661 31-275); experiment: substrate peptide degradation inhibition
[5] = target: Trypsin from Human Pancreas (human, UniProt P07477 24-247); experiment: substrate peptide degradation inhibition
[6] = target: Thrombin from human plasma (human, UniProt P00734 328-622); experiment: substrate peptide degradation inhibition
[7] = target: T3, Recombinant Human Matriptase/ST14 Catalytic Domain (human, UniProt Q9Y5Y6 596-855); experiment: substrate peptide degradation inhibition
T3 chain: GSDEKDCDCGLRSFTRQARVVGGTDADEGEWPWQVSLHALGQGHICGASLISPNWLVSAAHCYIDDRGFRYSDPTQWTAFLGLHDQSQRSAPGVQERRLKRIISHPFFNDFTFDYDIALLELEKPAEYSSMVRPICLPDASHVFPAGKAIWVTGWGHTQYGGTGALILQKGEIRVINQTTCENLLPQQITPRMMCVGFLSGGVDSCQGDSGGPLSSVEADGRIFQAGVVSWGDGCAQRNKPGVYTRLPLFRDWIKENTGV

[8] = target: tissue plasminogen activator human (human, UniProt P00750 36-562); experiment: substrate peptide degradation inhibition
[9] = target: recombinant human plasma kallikrein/KLKB1 Protein (human, UniProt P03952 20-638); experiment: substrate peptide degradation inhibition
[10] = target: T4, Plasmin from human plasma (human, UniProt P00747 97-810); experiment: substrate peptide degradation inhibition
T4 chain: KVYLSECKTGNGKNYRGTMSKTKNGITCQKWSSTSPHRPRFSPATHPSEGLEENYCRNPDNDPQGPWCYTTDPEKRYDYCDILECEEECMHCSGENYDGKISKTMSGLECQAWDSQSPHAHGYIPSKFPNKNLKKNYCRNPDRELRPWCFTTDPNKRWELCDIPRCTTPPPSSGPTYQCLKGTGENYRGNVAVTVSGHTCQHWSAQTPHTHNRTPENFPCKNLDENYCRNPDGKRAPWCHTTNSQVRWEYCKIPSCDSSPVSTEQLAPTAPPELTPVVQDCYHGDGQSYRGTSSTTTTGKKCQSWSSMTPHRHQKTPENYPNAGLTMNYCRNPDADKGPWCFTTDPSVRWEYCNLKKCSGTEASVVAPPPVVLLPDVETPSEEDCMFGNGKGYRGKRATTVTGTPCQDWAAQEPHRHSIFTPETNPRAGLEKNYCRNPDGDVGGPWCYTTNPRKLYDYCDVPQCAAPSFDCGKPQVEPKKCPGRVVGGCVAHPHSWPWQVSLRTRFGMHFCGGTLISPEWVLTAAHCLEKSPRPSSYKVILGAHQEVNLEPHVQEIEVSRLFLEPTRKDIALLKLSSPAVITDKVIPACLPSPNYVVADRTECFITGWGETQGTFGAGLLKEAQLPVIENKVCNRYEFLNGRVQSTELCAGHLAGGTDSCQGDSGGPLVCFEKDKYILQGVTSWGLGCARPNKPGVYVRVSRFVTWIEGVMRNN

[11] = target: α-Chymotrypsin from human pancreas (human, UniProt P17538 19-263); experiment: substrate peptide degradation inhibition
active hMMP-9(cat)_His6 = active hMMP-9(cat)_His6 (UniProt P14780 107-449); experiment: enzyme inhibition; substrate peptide
Sequence of active hMMP-9(cat)_His6 (P14780 107-449): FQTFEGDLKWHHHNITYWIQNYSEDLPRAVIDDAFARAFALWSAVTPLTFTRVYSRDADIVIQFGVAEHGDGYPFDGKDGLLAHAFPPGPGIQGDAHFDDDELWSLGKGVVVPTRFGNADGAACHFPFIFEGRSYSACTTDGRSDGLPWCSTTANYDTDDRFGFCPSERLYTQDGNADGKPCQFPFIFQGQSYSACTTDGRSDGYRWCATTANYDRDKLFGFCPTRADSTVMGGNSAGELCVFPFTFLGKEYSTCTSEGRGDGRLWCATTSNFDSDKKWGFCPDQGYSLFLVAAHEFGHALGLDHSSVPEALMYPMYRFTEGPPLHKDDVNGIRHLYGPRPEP

Sequence of α-Chymotrypsin from human pancreas (P17538 19-263): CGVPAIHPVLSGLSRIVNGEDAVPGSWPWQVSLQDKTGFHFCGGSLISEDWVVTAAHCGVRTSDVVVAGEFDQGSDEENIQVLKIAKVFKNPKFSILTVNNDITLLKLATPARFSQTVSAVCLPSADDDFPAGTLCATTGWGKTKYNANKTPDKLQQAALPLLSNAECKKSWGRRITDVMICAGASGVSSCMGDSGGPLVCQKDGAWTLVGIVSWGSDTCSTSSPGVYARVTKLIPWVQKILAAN
Sequence of recombinant human plasma kallikrein/KLKB1 Protein (P03952 20-638): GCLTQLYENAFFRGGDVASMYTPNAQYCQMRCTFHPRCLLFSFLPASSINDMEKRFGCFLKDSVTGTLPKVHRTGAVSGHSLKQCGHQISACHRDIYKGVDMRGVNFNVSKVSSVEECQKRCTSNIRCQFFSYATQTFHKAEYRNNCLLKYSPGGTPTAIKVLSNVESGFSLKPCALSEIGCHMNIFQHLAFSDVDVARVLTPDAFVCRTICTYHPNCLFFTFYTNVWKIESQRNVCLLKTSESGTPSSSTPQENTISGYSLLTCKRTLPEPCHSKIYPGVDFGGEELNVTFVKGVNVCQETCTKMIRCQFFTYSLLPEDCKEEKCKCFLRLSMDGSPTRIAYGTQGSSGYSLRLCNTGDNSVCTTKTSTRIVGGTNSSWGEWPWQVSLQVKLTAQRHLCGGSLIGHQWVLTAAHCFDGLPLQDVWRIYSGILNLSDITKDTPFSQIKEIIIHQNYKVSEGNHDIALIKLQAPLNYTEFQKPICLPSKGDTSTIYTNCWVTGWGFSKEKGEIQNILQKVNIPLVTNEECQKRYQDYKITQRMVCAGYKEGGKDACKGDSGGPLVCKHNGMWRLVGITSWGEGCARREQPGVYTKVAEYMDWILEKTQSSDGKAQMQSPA
Sequence of Tryptase from human lung (Q15661 31-275): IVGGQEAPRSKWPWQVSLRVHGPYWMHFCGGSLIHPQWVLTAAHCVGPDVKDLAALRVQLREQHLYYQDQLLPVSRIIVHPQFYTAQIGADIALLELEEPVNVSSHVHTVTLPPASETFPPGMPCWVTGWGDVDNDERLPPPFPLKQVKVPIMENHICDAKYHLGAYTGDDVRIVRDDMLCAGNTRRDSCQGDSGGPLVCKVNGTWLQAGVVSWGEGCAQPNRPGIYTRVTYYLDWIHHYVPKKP
Sequence of tissue plasminogen activator human (P00750 36-562): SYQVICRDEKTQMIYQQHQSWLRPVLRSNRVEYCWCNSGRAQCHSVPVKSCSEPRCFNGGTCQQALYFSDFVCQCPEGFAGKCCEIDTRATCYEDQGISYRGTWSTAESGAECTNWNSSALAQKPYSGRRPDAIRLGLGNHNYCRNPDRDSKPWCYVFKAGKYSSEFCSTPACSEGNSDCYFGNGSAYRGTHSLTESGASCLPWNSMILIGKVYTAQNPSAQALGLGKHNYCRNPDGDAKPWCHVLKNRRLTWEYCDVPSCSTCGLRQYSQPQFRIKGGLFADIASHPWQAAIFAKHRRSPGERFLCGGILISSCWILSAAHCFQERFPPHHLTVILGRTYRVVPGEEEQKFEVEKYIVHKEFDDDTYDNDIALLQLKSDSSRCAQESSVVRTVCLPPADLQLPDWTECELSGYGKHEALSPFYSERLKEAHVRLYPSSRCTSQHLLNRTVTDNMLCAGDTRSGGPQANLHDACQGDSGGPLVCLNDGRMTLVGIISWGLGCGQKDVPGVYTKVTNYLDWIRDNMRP
Sequence of Protein C from human plasma (P04070 43-461): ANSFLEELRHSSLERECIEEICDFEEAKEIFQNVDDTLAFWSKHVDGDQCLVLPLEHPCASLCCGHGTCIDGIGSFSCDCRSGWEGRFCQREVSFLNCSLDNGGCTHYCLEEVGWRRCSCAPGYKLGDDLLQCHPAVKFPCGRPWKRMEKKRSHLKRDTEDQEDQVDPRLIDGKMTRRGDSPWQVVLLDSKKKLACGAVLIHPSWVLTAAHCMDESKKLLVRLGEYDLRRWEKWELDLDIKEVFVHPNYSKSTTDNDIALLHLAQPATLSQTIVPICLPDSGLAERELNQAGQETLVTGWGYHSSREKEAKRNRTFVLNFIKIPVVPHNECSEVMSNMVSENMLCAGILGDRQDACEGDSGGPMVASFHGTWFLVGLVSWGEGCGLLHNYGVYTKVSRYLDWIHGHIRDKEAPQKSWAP

Binder | IC50 [1] | IC50 [2] | IC50 [3] | IC50 [4] | IC50 (Tryptase from human lung) | IC50 [5] | IC50 [6] | IC50 [7] | IC50 [8] | IC50 [9] | IC50 [10] | IC50 [11] | Ki (active hMMP-9(cat)_His6)
active MMP-9-binding peptide M91014 (designed binder) GSGMKETAAAKFERQHMDSPDLGTDDDDKAMADIGSANSDPQFGLFSKYRTPNCVMYKYAQCSHKYKPVCGSDMSTYANECTLCMKIREGGHNIKIIRNGPCGASAAA | > 1000 nM | > 1000 nM | > 1000 nM | > 1000 nM | > 1000 nM | > 1000 nM | > 1000 nM | > 1000 nM | > 1000 nM | > 1000 nM | > 1000 nM | > 1000 nM | 0.45 nM
active MMP-9-binding peptide M91004 (designed binder) GSGMKETAAAKFERQHMDSPDLGTDDDDKAMADIGSANSDPQFGLFSKYRTPNCRQRKGPSCQMAFQPVCGSDMSTYANECTLCMKIREGGHNIKIIRNGPCGASAAA | > 1000 nM | > 1000 nM | > 1000 nM | > 1000 nM | > 1000 nM | > 1000 nM | > 1000 nM | > 1000 nM | > 1000 nM | > 1000 nM | > 1000 nM | > 1000 nM | 1.2 nM
active MMP-9-binding peptide M91012 (designed binder) GSGMKETAAAKFERQHMDSPDLGTDDDDKAMADIGSANSDPQFGLFSKYRTPNCRVRGGPSCQMSFNPVCGSDMSTYANECTLCMKIREGGHNIKIIRNGPCGASAAA | > 1000 nM | > 1000 nM | > 1000 nM | > 1000 nM | > 1000 nM | > 1000 nM | > 1000 nM | > 1000 nM | > 1000 nM | > 1000 nM | > 1000 nM | > 1000 nM | 2.1 nM
active MMP-9-binding peptide M91005 (designed binder) GSGMKETAAAKFERQHMDSPDLGTDDDDKAMADIGSANSDPQFGLFSKYRTPNCRKRGGPSCQMSYNPVCGSDMSTYANECTLCMKIREGGHNIKIIRNGPCGASAAA | > 1000 nM | > 1000 nM | > 1000 nM | > 1000 nM | > 1000 nM | > 1000 nM | > 1000 nM | > 1000 nM | > 1000 nM | > 1000 nM | > 1000 nM | > 1000 nM | 1.4 nM
active MMP-9-binding peptide M91002 (designed binder) GSGMKETAAAKFERQHMDSPDLGTDDDDKAMADIGSANSDPQFGLFSKYRTPNCRTGRGPACQMGFQPVCGSDMSTYANECTLCMKIREGGHNIKIIRNGPCGASAAA | > 1000 nM | > 1000 nM | > 1000 nM | > 1000 nM | > 1000 nM | > 1000 nM | > 1000 nM | > 1000 nM | > 1000 nM | > 1000 nM | > 1000 nM | > 1000 nM | 2.3 nM
active MMP-9-binding peptide M91010 (designed binder) GSGMKETAAAKFERQHMDSPDLGTDDDDKAMADIGSANSDPQFGLFSKYRTPNCRKVGEPACQMSFNPVCGSDMSTYANECTLCMKIREGGHNIKIIRNGPCGASAAA | > 1000 nM | > 1000 nM | > 1000 nM | > 1000 nM | > 1000 nM | > 1000 nM | > 1000 nM | > 1000 nM | > 1000 nM | > 1000 nM | > 1000 nM | > 1000 nM | 1.2 nM
active MMP-9-binding peptide M91011 (designed binder) GSGMKETAAAKFERQHMDSPDLGTDDDDKAMADIGSANSDPQFGLFSKYRTPNCMMYKYAQCSHKSQPVCGSDMSTYANECTLCMKIREGGHNIKIIRNGPCGASAAA | > 1000 nM | > 1000 nM | > 1000 nM | > 1000 nM | > 1000 nM | > 1000 nM | > 1000 nM | > 1000 nM | > 1000 nM | > 1000 nM | > 1000 nM | > 1000 nM | 1.6 nM
active MMP-9-binding peptide M91001 (designed binder) GSGMKETAAAKFERQHMDSPDLGTDDDDKAMADIGSANSDPQFGLFSKYRTPNCQRGIGPSCQMSYKPVCGSDMSTYANECTLCMKIREGGHNIKIIRNGPCGASAAA | > 1000 nM | > 1000 nM | > 1000 nM | > 1000 nM | > 1000 nM | > 1000 nM | > 1000 nM | > 1000 nM | > 1000 nM | > 1000 nM | > 1000 nM | > 1000 nM | 2.6 nM
